Measured values as given in patent US20230220115A1.
Values joined by “and” are separate entries in the source; they are usually repeats but may differ in a detail not shown here. Equal entries are not always repeated.

Assays:
[1] = target: SARS-CoV-2 spike, N439K variant (pseudovirus RVP-703) (SARS-CoV-2) (UniProt P0DTC2); assay: cell-based or functional assay
[2] = target: SARS-CoV-2 spike, South African Δ3 B.1.351 variant (pseudovirus RVP-724) (SARS-CoV-2) (UniProt P0DTC2); assay: cell-based or functional assay

## Imdevimab (biosimilar version) (antibody)
[1]
  EC50 (pM) Neutralization, N439K: 2260 pM and 2220 pM
  potency in pseudovirus neutralization against REGN10933: 1000 fold
[2]
  EC50 (pM) Neutralization, South Africa B.1.351: 2.48 pM and 2.37 pM
